Measurements published in patent US20220315648A1 (AC IMMUNE, published 2022).
No end group written: not given here. *: point of attachment. Biotin = O=C1N[C@H]2[C@H](CS[C@H]2CCCCC(=O)*)N1

T1: TP-40 (human)
T1 peptide: Biotin-NNQNQGNMQREPNQA

T2: TP-23 (human)
T2 peptide: Biotin-TEDMTEDELREFFSQ

T3: TDP-6 (human)
T3 construct: One of the 40-66 aa linear peptides; also called TDP-43 peptide 140-200
T3 peptide: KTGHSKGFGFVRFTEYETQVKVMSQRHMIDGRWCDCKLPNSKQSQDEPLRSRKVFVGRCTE

T4: TP-21 (human)
T4 peptide: Biotin-KQSQDEPLRSRKVFV

T5: TP-48 (human)
T5 construct: 23 residues
T5 peptide: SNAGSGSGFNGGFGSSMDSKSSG


Key:
[1] = target: T6, human full length TDP-43 (FL TDP-43), recombinant, soluble (human, UniProt Q13148 1-414); test: Luminex, beads conjugated to FL TDP-43, antibody serial dilution
T6 construct: Antigen of Luminex, ELISA and SPR (soluble form); also called TDP-43 protein; Soluble TDP-43
T6 sequence (Q13148 whole entry): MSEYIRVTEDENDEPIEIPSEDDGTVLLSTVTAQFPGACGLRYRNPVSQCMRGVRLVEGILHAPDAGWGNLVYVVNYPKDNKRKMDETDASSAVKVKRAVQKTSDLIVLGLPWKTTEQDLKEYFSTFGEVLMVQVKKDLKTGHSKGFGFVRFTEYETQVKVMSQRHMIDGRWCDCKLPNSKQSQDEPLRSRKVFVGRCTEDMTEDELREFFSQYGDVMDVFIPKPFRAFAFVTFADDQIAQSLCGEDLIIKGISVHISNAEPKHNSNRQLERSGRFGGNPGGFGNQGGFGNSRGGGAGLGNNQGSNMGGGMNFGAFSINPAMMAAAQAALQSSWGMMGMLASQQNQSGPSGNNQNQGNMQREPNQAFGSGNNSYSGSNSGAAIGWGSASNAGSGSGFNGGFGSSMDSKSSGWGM
Procedure: Mice were euthanized and fusion with myeloma cells was performed using splenocytes from four individual mice. Screening for antibodies from the successfully fused hybridoma cell lines were performed as follows. Diluted (1:32) cell culture supernatants were analyzed using Luminex bead-based multiplex assay (Luminex, The Netherlands). Luminex beads were conjugated to FL TDP-43 and with capturing IgGs with anti-mouse IgG-Fc antibodies specific for the IgG1, IgG2a, IgG2b, IgG2c, and IgG3 subclasses (Jackson Immunoresearch, USA). Binding to beads conjugated to FL TDP-43 identified 386 hits derived from mice immunized with the FL TDP-43 liposomal vaccine.
Luminex assays with serial dilution of antibodies were performed as described before to determine half maximal effective concentration (EC50) of binding of antibodies to FL TDP-43. In summary, all tested antibodies bind to full length TDP-43 with high affinity.

[2] = target: T1, TP-40; test: indirect ELISA on TDP-43 peptides, antibody at 1 µg/ml
[3] = target: T2, TP-23; test: as above
[4] = target: T3, TDP-6; test: as above
[5] = target: T4, TP-21; test: as above
[6] = target: T5, TP-48; test: as above

| Binder | EC50 [1] [µM] | binding result [3] | also measured |
| --- | --- | --- | --- |
| ACI-7071-712A6-Ab1 (antibody, IgG2c, V domains shown, Mouse hybridoma antibody, IgG2c; also called 712A6B10) VH: QVQLQQSGAELVKPGTSVKLSCKASAYTFTEYTIHWIKQKSGQGLEWIGWFHPENDNIKYNENFKDKATLTADRSSSTVYMELSRLTSEDSAVYFCAGTSGYGDYWGQGTTLTVSS VL: not shown | 180 |  |  |
| ACI-7069-633B12-Ab1 (antibody, IgG2b, V domains shown, also called 633B12C8) VH: EVQLQQSGPELVKPGASVKISCKTSGFTFTEYSMHWVKQSHGKSLEWIGGINPNNGGTSYNQKFKGKATLTVDKSSSTAYMELRSLTSEDSAVYYCARESWGQGTTLTVSS VL: not shown | < 10 |  |  |
| ACI-7069-631B2-Ab1 (antibody, IgG1, V domains shown, also called 631B2A2) VH: EVQLQQSGPELVKPGASVKISCKTSGYTFTEYSIHWVKQSHGESLEWIGGINPDNGGTRYNQKFKGKATLTVDKSSSTAYMDLRSLTSEDSAVYYCARESWGQGTTLTVSS VL: not shown | < 10 |  |  |
| ACI-7069-636E5-Ab1 (antibody, IgG2b, V domains shown, also called 636E5B8) VH: EVHLVESGGDLVMPGGSLKLSCAASGFTFSNYGMSWVRQTPDKRLEWVATISSGGKYINYLDSLKGRFTISRDNAKNTLYLQMSSLKSEDTAMYYCAKDYGSGWAWFAYWGQGTLVTVSA VL: QLVLTQSSSASFSLGASAKLTCTLSSQHSTYTIEWYQQQPLKPPKYVMELKKDGSHSTGDGIPDRFSGSSSGADRYLSISNIQPEDEAIYICGVGDTIKEQFVYVFGGGTKVTVL | < 10 |  | binding result [2]: binds |
| ACI-7071-809D9-Ab2 (antibody, IgG2b, V domains shown, also called 809D9C2) VH: QVQLQQSGAELVRPGVSVKISCKGSGYKFTDYSMHWVKQSHTKSLEWIGVISTYYGDTTYNQKFKGKATITVDKSSSTAYMELARLTSEDSAIYYCATYGNFPASFSYWGQGTLVTVSA VL: DIVMTQAAPSIPVTPGESVSISCRSSKSLLHSNGNTYLYWFLQRPGQSPQLLIYRMSNLASGVPDRFSGSGSGTAFTLRISRVEAEDVGVYYCMQHLEYPFTFGSGTKLEIK | < 10 | binds |  |
| ACI-7071-809F12-Ab1 (antibody, IgG2b, V domains shown, also called 809F12D8) VH: QVQLKESGPGLVAPSQSLSITCTVSGFSLNRNGVQWVRQPPGKGLEWLGVIWPGGSTNCNSALMSRLSISKDNSKSQVFLKMNSLHTDDTGIYYCARVGGNYVWDYNNYAWGQGTLVTVSA VL: DVLMTQTPLSLPVSLGDQASISCRSSQNIVHSIGNTYLEWYLQKPGQSPKLLIYKVSNRFSGVPDRFSGSGSGTDFTLKISRVEAEDLGVYYCFQGSHVPYTFGGGTKLEIR | < 10 | binds |  |
| ACI-7069-641H1-Ab2 (antibody, IgG2b, V domains shown, also called 641H1E7) VH: QVQLKESGPGLVAPSQSLSITCTVSGFSLTNYGVHWVRQPPGKGLEWLGLMWAGGSTNYNSALMSRLSISKDNSKSQVFLKMNSLQTDDTAMYYCVIYRTGFAYWGQGTLVTVSA VL: DVLMTQTPLSLPVSLGDQASISCRSSQSIVHTIGNTYLEWYLQKPGQSPKLLIYKVSNRFSGVPDRFSGSGSGTDFTLKISRVEAEDLGVYYCFQGSHVPFTFGSGTKLEIK | < 10 | binds |  |
| ACI-7069-642A10-Ab1 (antibody, IgG1, V domains shown, also called 642A10B11) VH: QVQLQQPGAELVKPGASVKLSCKASGYTFTKYWMHWVKQRPGQGLEWIGEINPSNGRTNYNEKFKSKATLTVDKSSSTAYMQLSSLTSEDSAVYYCARYMDYWGQGTSVTVSS VL: not shown |  |  | binding result [6]: binds |

Further lines, with some results ahead:

| EC50 [1] [µM] | binding result [3] | Binder | also measured |
| --- | --- | --- | --- |
| < 10 | binds | ACI-7069-646B7-Ab1 (antibody, IgG2b, V domains shown, also called 646B7F7) VH: QVQLKESGPGLVAPSQSLSITCTVSGFSLTNFGVHWVRQPPGKGLEWLGIMWAGGSTNYNSALMSRLSISKDNSKSQVFLKMNSLQTDDTAMYYCVIYKTGFAYWGQGTLVTVSA VL: DVLMTQTPLSLPVSLGDQASISCRSSQSIVHAIGNTYLEWYLQKPGQSPKLLIYKVSNRFSGVPDRFSGSGSGTDFTLKISRVEAEDLGVYYCFQGSHVPFTFGSGTKLEIK |  |
| < 10 |  | ACI-7069-634H10-Ab2 (antibody, IgG2b, V domains shown, also called 634H10H7) VH: EVQLQQSGAELVKPGASVRLSCTASGFNIKDTYMHWVKQRPEQGLEWIGRIDPANSNTKFDPKFQGKATITSDTSSNTAYLQLSSLTSEDTAVYYCARFYGGSHWYFDVWGAGTTVTVSS VL: DIKMTQSPSSMYASLGERVTITCKASQDIKSYLSWYQHKPWKSPKALIYYATSLADGVPSRFSGSGSGQDYSLTISSLESDDTATYYCLQQGESPYTFGGGTKLEIK | binding result [4]: binds |
| < 10 |  | ACI-7069-642D12-Ab1 (antibody, IgG2b, V domains shown, also called 642D12B4) VH: EVQLQQSGAELVKPGASVRLSCTASGFNIKDPYMHWVRQRPKQGLEWIGRIDPADGNTKYDPKFQGKATLTADTSSNVAYLHLSSLTSEDTAVYYCARFYGSSHWYFDVWGAGTTVTVSS VL: DIKMTQSPSSMYASLGERVTITCKASQDIKRYLSWYQQKPWKSPKILIYYATSLADGVPSRFSGTGSGQDYSLTISSLESDDVATYYCLQQGESPYTFGGGTKLEIK | binding result [5]: binds |
